# Key:
# [1] = target: phosphorylated tau prepared by incubating recombinant non-phosphorylated tau with a rat brain extract (UniProt P10636); assay: sandwich ELISA on CSF spiked with phosphorylated and non-phosphorylated tau, no amplification
# [2] = target: recombinant non-phosphorylated tau (UniProt P10636); assay: sandwich ELISA, antibody coated, CSF spiked with tau, detection with biotinylated AT120 and HT7
# [3] = target: phosphorylated tau prepared by incubating recombinant non-phosphorylated tau with a rat brain extract (UniProt P10636); assay: as above
# [4] = target: recombinant non-phosphorylated tau (UniProt P10636); assay: sandwich ELISA, antibody coated, CSF without added tau (background), detection with biotinylated AT120 and HT7
# [5] = target: phosphorylated tau prepared by incubating recombinant non-phosphorylated tau with a rat brain extract (UniProt P10636); assay: as above
Substance,detection limit in ELISA [1] [pg/mL],ELISA signal at 0.2 pg/ml tau [2],ELISA signal at 1 pg/ml tau [2],ELISA signal at 5 pg/ml tau [2],ELISA signal at 25 pg/ml tau [2],ELISA signal at 100 pg/ml tau [2],ELISA signal at 500 pg/ml tau [2],ELISA signal at 2000 pg/ml tau [2],ELISA signal at 0.2 pg/ml tau [3],ELISA signal at 1 pg/ml tau [3],ELISA signal at 5 pg/ml tau [3],ELISA signal at 25 pg/ml tau [3],ELISA signal at 100 pg/ml tau [3],ELISA signal at 500 pg/ml tau [3],ELISA signal at 2000 pg/ml tau [3],ELISA signal at 0 pg/ml tau (blank) [4],ELISA signal at 0 pg/ml tau (blank) [5]
"monoclonal antibody AT180 secreted by the hybridoma deposited at ECACC on Dec. 22, 1992 under No. 92122204",10,85,87,90,85,94,92,95,95,97,106,105,125,179,449,89,94
"monoclonal antibody AT270 secreted by the hybridoma deposited at ECACC on Jul. 7, 1993 under No. 93070774",10,91,90,87,92,96,94,98,89,83,86,113,158,1040,2650,92,94
